Results published in patent publication US20050182242A1, “Global analysis of protein activities using proteome chips” (priority 2001, published 2005).

How the values were obtained:
Details in all cases: liposome binding signal on yeast proteome chip, Cy3-streptavidin detection
[1] = system: phosphatidylcholine (PC) liposomes; assay: Yeast proteome chip probed with PC liposomes
Summary of the method: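 Yeast proteome chips incubated 1 h at RT with sonicated liposomes of PC containing 1% (w/w) biotin-DHPE, plus 5% (w/w) of the indicated phosphoinositide where applicable. After PBS washes, bound liposomes detected with Cy3- or Cy5-streptavidin (>30 min, RT, dark) and fluorescence scanned.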

PI(3,4,5)P3 liposomes = assay: Yeast proteome chip probed with PI(3,4,5)P3 liposomes
PI(3,4)P2 liposomes = assay: Yeast proteome chip probed with PI(3,4)P2 liposomes
PI(3)P liposomes = assay: Yeast proteome chip probed with PI(3)P liposomes
Source text: To identify PI-binding proteins in yeast, liposomes were used as probes because the liposome provides the most relevant physiological condition to assay the interactors. Six types of liposomes were used. Each contains phosphatidylcholine (“PC”) with 1% (w/w) N-(biotinoyl)-1,2-dihexadecanoyl-sn-glycero-3-phosphoethanolamine, triethylammonium salt (biotin DHPE). The biotinylated lipid serves as a label that can be detected by Cy3-streptavidin (21). In addition to PC, the five other liposomes contain either 5% (w/w) PI(3)P, PI(4)P, PI(3,4)P2, PI(4,5)P2, or PI(3,4,5)P3 (FIG. 3A).
The protein-liposome interaction was assayed as follows. Appropriate amounts of each lipid in chloroform were mixed and dried under nitrogen. The lipid mixture was resuspended in TBS buffer by vortexing. The liposomes were created by sonication. Blocked proteome chips were washed three to five times in PBS buffer, and the extra liquid on the glass surface was removed by tapping the slides vertically on a KIMWIPE™. 200 μl of liposome solution was added to the proteome chip and immediately covered by a hydrophobic plastic cover slip (GRACE BIO-LAB™, USA). After trapped air bubbles were removed, the chip was incubated in a humidity chamber at RT for one hour. To remove the cover slip, the chip was immersed into large volume of PBS buffer (50 ml), so that the slip would float away. The chip was then moved to a second PBS bath (>50 ml) and washed 3×5 min with shaking at RT. After removing extra liquid on the surface of the chip, about 100 μl of Cy3 or Cy5 conjugated streptavidin (PIERCE™, USA; 1:2000 to 1:4000 dilution) was added to the surface and covered by a hydrophobic plastic cover slip (GRACE BIO-LABS™, USA). The chip was incubated for greater than 30 min in the dark at RT. The chip was then washed as described above. To completely remove the liquid on the chip, the chip was spun to dryness at 1500-2000 rpm for 5-10 min at RT.
• 1. S. Fields, Y. Kohara, D. J. Lockhart, Proc. Natl. Acad. Sci. 96, 8825 (1999); A. Goffeau et al., Science 274, 563 (1996). • 2 P. Ross-Macdonald et al., Nature 402, 413 (1999); J. L., DeRisi, V. R. Iyer, P. O. Brown, Science 278, 680 (1997); E. A. Winzeler et al., Science 285, 901 (1999). P. Uetz et al., Nature 403, 623 (2000); T. Ito et al., Proc. Natl. Acad. Sci. USA. 97, 1143 (2000) • 3 H. Zhu, M. Snyder, Curr. Opin. Chem. Biol. 5, 40 (2001). • 4 M. R. Martzen et al., Science 286, 1153 (1999). • 5 H. Zhu et al., Nat. Genet. 26, 283 (2000). • 6 G. MacBeath, S. L. Schreiber, Science 289, 1760 (2000). • 7 A. Caveman, J. Cell Sci. 113, 3543 (2000). • 8 P. Arenkov et al., Anal. Biochem 278, 123 (2000). • 9 D. A. Mitchell, T. K. Marshall, R. J. Deschenes, Yeast 9, 715 (1993). The expression vector pEGH was created by inserting an RGS-HisX6 epitope tag between the GST gene and the polycloning site of pEG(KG). The yeast ORFs were cloned using the strategy described previously (5), except every step was done in a 96-well format. Plasmid DNAs confirmed by DNA sequencing were reintroduced into both yeast (Y258) and E. coli (DH5a). […] 0.1 mM calcium was present in buffers in all subsequent steps. The chip was washed three times with PBS at RT. Cy3-conjugated streptavidin (Jackson IR, USA) (1:5000 dilution) was added to the chip and incubated for 30 min at RT. After extensive washing, the chip was spun dry and scanned using a microarray scanner; the data was subsequently acquired with the GENEPIX™ array densitometry software (Axon, USA). • 12 S. S. Hook, A. R. Means, Annu. Rev. Pharmacol. Toxicol.41, 471 (2001). • 13 M. S. Cyert, R. Kunisawa, D. Kaim, J. Thorner, Proc. Natl. Acad. Sci. USA 88, 7376 (1991). • 14 D. A. Stirling, K. A. Welch, M. J. Stark, EMBO J. 13, 4329 (1994). • 15 F. Bohl, Kruse, EMBO J. 19, 5514 (2000); E. Bertrand et al., Mol. Cell 2, 437 (1998). • 16 D. C. Winter, E. Y. Choe, R. Li, Proc. Nat. Acad Sci. USA 96, 7288 (1999). • 17 C.

PI(4)P liposomes = assay: Yeast proteome chip probed with PI(4)P liposomes
PI(4,5)P2 liposomes = assay: Yeast proteome chip probed with PI(4,5)P2 liposomes

B1: KCS1: yeast GST-HisX6 fusion protein on proteome chip (protein, UniProt Q12494 1-1050, looked up)
Inositol hexakisphosphate …: MDTSHEIHDKIPDTLREQQQHLRQKESEGCITTLKDLNVPETKKLSSVLHGRKASTYLRIFRDDECLADNNNGVDSNNGGSVTCADKITRSEATPKSVPEGLQVSEKKNNPDTLSSSLSSFILSNHEEPAIKPNKHVAHRNNITETGQGSGEDIAKQQSHQPQVLHHQTSLKPIQNVDEGCISPKSTYQESLHGISEDLTLKPVSSATYYPHKSKADSGYEEKDKMENDIDTIQPATINCASGIATLPSSYNRHTFKVKTYSTLSQSLRQENVNNRSNEKKPQQFVPHSESIKEKPNTFEQDKEGEQADEEEDEGDNEHREYPLAVELKPFTNRVGGHTAIFRFSKRAVCKALVNRENRWYENIELCHKELLQFMPRYIGVLNVRQHFQSKDDFLSDLDQENNGKNDTSNENKDIEVNHNNNDDIALNTEPTGTPLTHIHSFPLEHSSRQVLEKEHPEIESVHPHVKRSLSSSNQPSLLPEVVLNDNRHIIPESLWYKYSDSPNSAPNDSYFSSSSSHNSCSFGERGNTNKLKRRDSGSTMINTELKNLVIREVFAPKCFRRKRNSNTTTMGNHNARLGSSPSFLTQKSRASSHDASNTSMKTLGDSSSQASLQMDDSKVNPNLQDPFLKKSLHEKISNALDGSHSVMDLKQFHKNEQIKHKNSFCNSLSPILTATNSRDDGEFATSPNYISNAQDGVFDMDEDTGNETINMDNHGCHLDSGKNMIIKSLAYNVSNDYSHHDIESITFEETSHTIVSKFILLEDLTRNMNKPCALDLKMGTRQYGVDAKRAKQLSQRAKCLKTTSRRLGVRICGLKVWNKDYYITRDKYFGRRVKVGWQFARVLARFLYDGKTIESLIRQIPRLIKQLDTLYSEIFNLKGYRLYGASLLLMYDGDANKSNSKRKKAANVKVNLIDFARCVTKEDAMECMDKFRIPPKSPNIEDKGFLRGVKSLRFYLLLIWNYLTSDMPLIFDEVEMNDMISEEADSNSFTSATGSKINFNSKWDWLDEFDKEDEEMYNDPNSKLRQKWRKYELIFDAEPRYNDDAQVSD
modifications: GST-HisX6 tag
notes: yeast GST-HisX6 fusion protein on proteome chip
[1]
  PC: 42.85
PI(3,4,5)P3 liposomes
  PI(3, 4, 5)P3: 36.22
PI(3,4)P2 liposomes
  PI(3, 4)P2: 60.91
PI(3)P liposomes
  PI(3)P: 0.00
PI(4)P liposomes
  PI(4)P: 35.27

B2: SXM1: yeast GST-HisX6 fusion protein on proteome chip (protein, UniProt Q04175 1-944, looked up)
Importin beta SMX1: MVQEQAILSCIEQTMVADAKIIKEAEQQLFEFQKQPGFTSFLLNIVSDDNFALNVRLSSAIYLKNKIHRSWDTKREDGIKADEKLSIKERLIETLVKNCENNHIRPILTETINGILVGQEDWDLAPIIKNLLSSGDASYIYPGLLLLFQLCKAHRWDMVGSRDYIDSVIEELFPIVEGIASNIGSQTDYRSNEILYLILKSFKYACLNNLPQYFSQPERIMSWVQLHLYLCSKPLPVEVMELDPADRSLDKRVKVNKWGFGNLNRFLQRYNKITKAITKEFIDYIFNTIVPIILREFFKDIEAWGNNSLWLSDSSLYFLISFLEKCVTIDQLYPLIEPHLQIIFENVIFPCLCANEQSIELLEDDQEEYTRRYFDINREGSTPDAASADFIFLIGSKRPEKLNNILPFINDIFTRFDANSSDINMAFKEEGALRTLSNLFSFIDEPSVLENIFGHFIVPLLSQDKYMFLVARSLETIALYSEEFKDMNILSQLFELTYTNFLNSNVLPVQIEAADAIKCLIVSNPQIHPAVSAHVPGMMEKLLKLSKIFEIDILSEVMEALVERFSDELSPFAKDLASNLVEQFLRIAQALVENPSETYSASDQEQEIQASGLLQTMTTMVMSMNKVPLIESLAPVVKFVVLHAQISFITEAVDLLDALTISSHLLYNQIAPPIWELLHDILDSFQTYAMDYFEAYSIFFETIVMTGFPQDQTYVQPLLEILSAKLESEVDYDIEHVMQILMYFALSMRDIPLFSKAIKVSTNDELGLDSKCIVKLGLANLFAKPIETLQIMENEGFTINFFTNWFNEKFYSVFAIKLQVLVILTLLKMPEVPNSVSPLLNNLTNKLVELTLSLPKAIRNRDAVTEGKSLEGDLTPEEEEEYFIECDDDMKETVLDQINVFQEVHTFFKNLQNEDAGKYEKIINYLDESKRDSLQVILEFVSQH
modifications: GST-His6 tag
notes: as for B1
[1]
  PC: 51.95
PI(3,4,5)P3 liposomes
  PI(3, 4, 5)P3: 23.40
PI(3,4)P2 liposomes
  PI(3, 4)P2: 19.15
PI(4,5)P2 liposomes
  PI(4, 5)P2: 27.22
PI(4)P liposomes
  PI(4)P: 30.48

B3: MIS1: yeast GST-HisX6 fusion protein on proteome chip (protein, UniProt P09440 35-975, looked up)
C-1-tetrahydrofolate …: YHILSGRKLAQSIREKANDEIQAIKLKHPNFKPTLKIIQVGARPDSSTYVRMKLKASKDSNVDCIIEKLPAEITEVELLKKISDINDDDSIHGLLIQLPLPRHLDETTITNAVDFKKDVDGFHRYNAGELAKKGGKPYFIPCTPYGCMKLLEEAHVKLDGKNAVVLGRSSIVGNPIASLLKNANATVTVCHSHTRNIAEVVSQADIVIAACGIPQYVKSDWIKEGAVVIDVGINYVPDISKKSGQKLVGDVDFDSVKEKTSYITPVPGGVGPMTVAMLVSNVLLAAKRQFVESEKLPVIKPLPLHLESPVPSDIDISRAQSPKHIKQVAEELGIHSHELELYGHYKAKISPNIFKRLESRENGKYVLVAGITPTPLGEGKSTTTMGLVQALSAHLGKPSIANVRQPSLGPTLGVKGGAAGGGYAQVIPMDEFNLHLTGDIHAISAANNLLAAAIDTRMFHEATQKNDSTFYKRLVPRKKGIRKFTPSMQRRLKRLDIEKEDPDALTPEEVKRFARLNINPDTITIRRVVDINDRMLRQITIGEAATEKGFTRTTGFDITVASELMAILALSKSLHEMKERIGRMVIGADYDNKPVTVEDIGCTGALTALLRDAIKPNLMQTLEGTPVMVHAGPFANISIGASSVIADLMALKLVGSEKNPLNDKNIHEPGYVVTEAGFDFAMGGERFFDIKCRSSGLVPDAVVLVATVRALKSHGGAPNVKPGQSLPKEYTEENIDFVAKGVSNLVKQIENIKTFGIPVVVAINRFETDSQAEIEVIKKAALNAGASHAVTSNHWMEGGKGAVELAHAVVDATKEPKNFNFLYDVNSSIEDKLTSIVQKMYGGAKIEVSPEAQKKIDTYKKQGFGNLPICIAKTQYSLSHDPSLKGVPRGFTFPIRDVRASIGAGYLYALAAEIQTIPGLSTYAGYMAVEVDDDGEIEGLF
modifications: GST-His6 fusion tag
notes: as for B1
[1]
  PC: 71.02
PI(3,4,5)P3 liposomes
  PI(3, 4, 5)P3: 43.65
PI(3,4)P2 liposomes
  PI(3, 4)P2: 86.34
PI(3)P liposomes
  PI(3)P: 3.50
PI(4)P liposomes
  PI(4)P: 65.32
